Entries after “also recorded” stand apart in the source; their conditions may differ.
Key:
[1] = tested on: luciferase-PAR2 (native PAR2); experiment: Gaussia luciferase release, luciferase-PAR2; type: cell-based, human; conditions: cathepsin S 2 µM, 10 minutes, room temperature, triplicate
Text: Gaussia luciferase cDNA was cloned, without its termination codon, into pcDNA3.1(−) as an Xho I-EcoR I fragment. Human PAR2 cDNA and its mutants, M1, M2 and M3, were generated using PCR primers designed to start after the signal sequence and end with a termination codon: […] and […] . The PCR amplified cDNAs were cloned into EcoR I and Hind III sites C-terminal to Gaussia luciferase cDNA. The resulting plasmids were called pGLPAR2, pGLPAR2M1, pGLPAR2M2 and pGLPAR2M3.
The plasmid DNAs pGLPAR2, pGLPAR2M1, pGLPAR2M2 and pGLPAR2M3 (10 µg of each) were transfected into 2×10^6 HeLa cells as described above and plated into 10 cm dishes. HeLa cells transfected with salmon sperm were used as controls. Forty-eight hours after transfection, the cells were washed twice with PBS, scraped and pelleted. Cells were scraped in order to eliminate the use of trypsin, which could activate PARs, and allowed for the luminescence assay to be performed in a small volume. Pelleted cells were resuspended into 200 µl PBS, and 100 µl of each was incubated with cathepsin S at a final concentration 2 µM for 10 minutes at room temperature. Untreated cells were processed by the same methods for a negative control. […] Luminescence assays were performed in triplicate on 50 µl of the supernatants according to the instructions of the manufacturer (New England Biolabs, Ipswich, MA).

cathepsin S = experiment: Cathepsin S digestion of the human PAR2 N-terminal peptide (LC/MS/MS); type: biochemical; conditions: cathepsin S 1 µM, pH 7.0, 37°C, 20 minutes; MS/MS sequencing
Description: Recombinant human cathepsin S was produced as follows. The human cathepsin S proprotein coding region was isolated by PCR using the forward and reverse primers […] CCTG and […] and a template of plasmid DNA containing the entire coding sequence of human cathepsin S. The PCR product was cut with Nco I and Xho I, and cloned into the pTYB4 expression vector from New England Biolabs for expression in E.coli. Cells were grown in LB medium induced with 0.3 mM IPTG, harvested by centrifugation, resuspended in lysis buffer A (0.5 M NaCl, 0.05 M Tris, 5 mM EDTA, pH 8.0) and lysed in a French press. The lysate was centrifuged and the protein was found predominantly in inclusion bodies which were dissolved in buffer B (10 mM DTT and 8 M urea), and refolded in the presence of buffer B containing 0.7 M L-arginine, 0.01 M glutathione, 0.001 M glutathione disulfide, and 0.005 M EDTA as described. […] The specific activity of cathepsin S was assayed using Z-VVR-AMC in fluorimetric and Z-FR-pNA in colorimetric assays[22] and determined to be 10,000 mU/mg protein.
A peptide comprising the N-terminus of PAR2, […], was dissolved in 50 mM Tris, pH 7.0, 0.1 M NaCl, 0.1 mM EDTA, and 0.01% Tween-20 to a concentration of 100 mM. […] The reaction samples were analyzed by the Harvard Microchemistry & Proteomics Analysis Facility (Cambridge, MA). […]

PAR2 = conditions: proteases expressed in the skin; cited from earlier work
Text: PAR2 signaling has been implicated in the development of inflammatory and bowel diseases, asthma, itch and pain. The receptor is expressed on many types of cells including keratinocytes, sensory neurons, fibroblasts, endothelial cells, and inflammatory cells, [3]. Consistent with this broad expression, PAR2 is involved in numerous physiologic and pathophysiologic processes in response to both endogenous and exogenous proteases.

[2] = tested on: salmon sperm transfected HeLa cells; experiment: IP1 (IP-One HTRF) assay in salmon sperm DNA-transfected HeLa cells; type: cell-based; conditions: cathepsin S 1 µM, 1 hour, 37°C
Description: To determine the effect of PAR2 activation on Gq stimulation, we measured IP1, a downstream metabolite of IP3, using the IP-One HTRF assay from Cis Bio, Medford, MA. HeLa cells were transfected with salmon sperm DNA or PAR2 cDNA as described above, plated in 10 cm culture dishes and incubated at 37°C with 5% CO2. After 24 hours, the cells were trypsinized, counted, plated into 96-well plates at 80,000 cells/well and incubated for another 24 hours. The medium was replaced with a stimulation buffer containing LiCl, per the instructions of the manufacturer. Ligands, including cathepsin S (1 µM), KVDGTS (100 µM) and SLIGRL (10 µM) were added to wells and incubated at 37°C for 1 hour and IP1 levels determined. This assay was performed on multiple wells containing each ligand on three occasions. Error bars represent SEM.

B1: cathepsin S: Recombinant human cathepsin S, cysteine protease, expressed in E.coli, refolded and activated (protein, UniProt P25774 115-331, looked up)
Cathepsin S: LPDSVDWREKGCVTEVKYQGSCGACWAFSAVGALEAQLKLKTGKLVSLSAQNLVDCSTEKYGNKGCNGGFMTTAFQYIIDNKGIDSDASYPYKAMDQKCQYDSKYRAATCSKYTELPYGREDVLKEAVANKGPVSVGVDARHPSFFLYRSGVYYEPSCTQNVNHGVLVVGYGDLNGKEYWLVKNSWGHNFGEEGYIRMARNKGNHCGIASFPSYPEI
For B1, the “receptor cleavage, luciferase luminescence (in words)” value [1] is given as “cleaved the native and PAR2M1 receptors”, the “cleavage points (in words)” value (cathepsin S) is given as “resulted in several cleavage points; also recorded: most frequent after glycine followed by leucine” and the “PAR2 activation (in words)” value (PAR2) is given as “activated”. The “IP1 level in salmon sperm transfected cells (in words)” value [2] was “no effect above baseline IP1 levels”.
